Data as given in the supplement of paper PMC7125110.
± gives the standard error. Fewer inactive variants are shown than the library holds.

B1: glmS ribozyme (parent)
chain: AUAAAAGCGCCAGAACUACAGAAAUGUAGUUGACGAGGAGGAGGUUUAUCGAAUUUUCGGCGGAUGCCUCCAAA

Tests used:
Details in all cases: with glucosamine-6-phosphate
glucosamine-6-phosphate [1] = variants of: B1; assay: self-cleavage kobs at 40 uM GlcN6P; higher = faster cleavage; RNA array
Outline: (§1)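 Over ~14 h at 37 °C, tiles were imaged as glucosamine-6-phosphate (40 μM to 10 mM) in HEPES/KCl/Mg(OAc)2 buffer flowed across sequenced MiSeq chips. The chips carried barcoded ribozyme variants transcribed in situ by E. coli RNA polymerase and tracked with a hybridised Cy3 probe. After normalisation to baseline and to non-cleaving reference variants, one- or two-exponential decay fits of per-tile medians gave kobs. kcat and KM followed from weighted Michaelis–Menten fits across concentrations.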

glucosamine-6-phosphate [2] = variants of: B1; assay: self-cleavage kobs at 640 uM GlcN6P; higher = faster cleavage; RNA array
Outline: as §1

glucosamine-6-phosphate [3] = variants of: B1; assay: self-cleavage kobs at 2500 uM GlcN6P; higher = faster cleavage; RNA array
Outline: as §1

glucosamine-6-phosphate [4] = variants of: B1; assay: self-cleavage kobs at 10000 uM GlcN6P; higher = faster cleavage; RNA array
Outline: as §1

glucosamine-6-phosphate [5] = variants of: B1; assay: self-cleavage kobs at 160 uM GlcN6P; higher = faster cleavage; RNA array
Outline: as §1

Variant | self-cleavage kobs at 40 uM GlcN6P (glucosamine-6-phosphate [1]) [s⁻¹] | self-cleavage kobs at 640 uM GlcN6P (glucosamine-6-phosphate [2]) [s⁻¹] | self-cleavage kobs at 2500 uM GlcN6P (glucosamine-6-phosphate [3]) [s⁻¹] | self-cleavage kobs at 10000 uM GlcN6P (glucosamine-6-phosphate [4]) [s⁻¹] | self-cleavage kobs at 160 uM GlcN6P (glucosamine-6-phosphate [5]) [s⁻¹]
A39U C61A U65C | < 1e-05 | – | – | – | –
G37U A52U | < 1e-05 | < 1e-05 | < 1e-05 | – | –
G40A C50G G66C | 0.00112 ± 0.00049 | – | – | 0.00127 ± 0.00049 | –
A39C G40C U47C | < 1e-05 | – | – | – | –
A42C C61A G66U | < 1e-05 | – | < 1e-05 | – | –
A42C G44C | < 1e-05 | < 1e-05 | – | < 1e-05 | < 1e-05
G40C U54C | 8.26e-05 ± 2.6e-05 | – | 0.00131 ± 0.00028 | 0.00203 ± 0.00044 | –
G40C U54G | 0.000126 ± 1.3e-05 | 0.000766 ± 0.00015 | 0.0025 ± 0.00059 | 0.00251 ± 0.00031 | 0.000127 ± 3e-05
A39U G44A C71A | < 1e-05 | – | – | – | < 1e-05
G40U A53U C58A G62U | < 1e-05 | – | – | – | –
A42G C68U | 0.000563 ± 7.3e-05 | 0.00237 ± 0.00041 | – | 0.0168 ± 0.0034 | 0.000735 ± 0.00016
A42C U47G | < 1e-05 | – | < 1e-05 | – | –
G41A G43C G62U | < 1e-05 | – | – | < 1e-05 | –
G38U U46G | < 1e-05 | – | < 1e-05 | – | < 1e-05
A42C A53G | < 1e-05 | – | – | – | < 1e-05
A42C C61U C71A | < 1e-05 | – | – | – | –
G38U U46G G60C | < 1e-05 | < 1e-05 | < 1e-05 | – | < 1e-05
A42C G43U A48G G62C C67A C70G | < 1e-05 | < 1e-05 | < 1e-05 | – | –
G37U G41A | < 1e-05 | < 1e-05 | – | < 1e-05 | < 1e-05
G37U G40A G41U A52G | < 1e-05 | – | – | – | –
G38A A42U C70A | < 1e-05 | – | < 1e-05 | < 1e-05 | –
A39G U45C C67U | 0.000136 ± 5.9e-05 | – | – | 0.00434 ± 0.0011 | –
G41A C67G C70U | 4.65e-05 ± 2e-05 | 0.000188 ± 5.7e-05 | 0.000826 ± 0.00023 | 0.00166 ± 0.00038 | 0.000107 ± 3.4e-05
G37U G60A | < 1e-05 | < 1e-05 | – | – | –

Variant | self-cleavage kobs at 40 uM GlcN6P (glucosamine-6-phosphate [1]) [s⁻¹] | self-cleavage kobs at 640 uM GlcN6P (glucosamine-6-phosphate [2]) [s⁻¹] | self-cleavage kobs at 2500 uM GlcN6P (glucosamine-6-phosphate [3]) [s⁻¹] | self-cleavage kobs at 10000 uM GlcN6P (glucosamine-6-phosphate [4]) [s⁻¹] | self-cleavage kobs at 160 uM GlcN6P (glucosamine-6-phosphate [5]) [s⁻¹]
G41C C67U | < 1e-05 | < 1e-05 | < 1e-05 | < 1e-05 | < 1e-05
A42G G43U C70U | < 1e-05 | – | – | < 1e-05 | –
G38A C58A G66A | < 1e-05 | – | – | < 1e-05 | –
G37U U45G U46C G63A C68A | < 1e-05 | – | – | < 1e-05 | –
A42G G63C | < 1e-05 | < 1e-05 | < 1e-05 | < 1e-05 | < 1e-05
G40C C68A | < 1e-05 | < 1e-05 | < 1e-05 | < 1e-05 | < 1e-05
A42G G60A U65G | < 1e-05 | – | < 1e-05 | – | –
G38A G60U U69G | < 1e-05 | – | – | < 1e-05 | –
A42G U45C | 5.93e-05 ± 2.9e-05 | – | – | – | –
G41U C68A | < 1e-05 | < 1e-05 | < 1e-05 | < 1e-05 | < 1e-05
G37U U69A | < 1e-05 | – | – | < 1e-05 | –
G38U A52C C61A | < 1e-05 | – | – | – | –
G40A A48U C61G | < 1e-05 | – | – | < 1e-05 | –
G38C A42G | < 1e-05 | < 1e-05 | < 1e-05 | < 1e-05 | < 1e-05
G40U C61A G63C | < 1e-05 | – | < 1e-05 | – | < 1e-05
G41U A42U C50G | < 1e-05 | < 1e-05 | – | – | –
G40A G60A | < 1e-05 | < 1e-05 | – | – | < 1e-05
G40C A64C | < 1e-05 | – | – | – | < 1e-05
A42G U46C A48U | < 1e-05 | – | – | – | –
G41C U49G A53G | < 1e-05 | – | – | – | –
G38C A39U G60U | < 1e-05 | – | < 1e-05 | < 1e-05 | –
G41A A48U C68A | < 1e-05 | < 1e-05 | < 1e-05 | < 1e-05 | –
G41U G60C | < 1e-05 | < 1e-05 | < 1e-05 | < 1e-05 | < 1e-05
A42G G43U | < 1e-05 | < 1e-05 | < 1e-05 | – | < 1e-05

Variant | self-cleavage kobs at 40 uM GlcN6P (glucosamine-6-phosphate [1]) [s⁻¹] | self-cleavage kobs at 640 uM GlcN6P (glucosamine-6-phosphate [2]) [s⁻¹] | self-cleavage kobs at 2500 uM GlcN6P (glucosamine-6-phosphate [3]) [s⁻¹] | self-cleavage kobs at 10000 uM GlcN6P (glucosamine-6-phosphate [4]) [s⁻¹] | self-cleavage kobs at 160 uM GlcN6P (glucosamine-6-phosphate [5]) [s⁻¹]
G38U G63U | < 1e-05 | – | < 1e-05 | < 1e-05 | –
G38U G59A C68G | 6.06e-05 ± 2.6e-05 | – | – | 4.84e-05 ± 1.9e-05 | –
G40U G63A | < 1e-05 | < 1e-05 | < 1e-05 | < 1e-05 | < 1e-05
G40U G63C | < 1e-05 | < 1e-05 | < 1e-05 | < 1e-05 | < 1e-05
G40C U49C | < 1e-05 | < 1e-05 | < 1e-05 | < 1e-05 | –
G40C U49A | < 1e-05 | < 1e-05 | – | < 1e-05 | –
G38A G43U C67U | < 1e-05 | – | – | < 1e-05 | –
A42G A48U G62U C71U | < 1e-05 | < 1e-05 | < 1e-05 | < 1e-05 | –
G37U G40U C67G | < 1e-05 | < 1e-05 | < 1e-05 | – | –
G41A U57C | < 1e-05 | < 1e-05 | – | – | < 1e-05
G41A U57G | < 1e-05 | – | – | < 1e-05 | –
A39U G40U C70U | 9.82e-05 ± 1.8e-05 | 0.000466 ± 7.4e-05 | 0.00127 ± 0.0003 | 0.00219 ± 0.00054 | 0.000392 ± 6.8e-05
A39C C50G A52C | < 1e-05 | – | – | – | –
A39G U65G C67G | 0.000107 ± 2.4e-05 | – | – | 0.00497 ± 0.0012 | –
A39U G66U C67U | 3.54e-05 ± 1.2e-05 | – | – | – | –
G40C A48C | < 1e-05 | < 1e-05 | – | – | < 1e-05
G38C C67U | < 1e-05 | – | < 1e-05 | < 1e-05 | –
A39C G43C U47C U49C A64U U65A | < 1e-05 | – | – | – | –
G38C U56A | < 1e-05 | – | < 1e-05 | – | –
G41C G63A A64G | < 1e-05 | – | – | < 1e-05 | –
G41C C50G | < 1e-05 | < 1e-05 | < 1e-05 | < 1e-05 | < 1e-05
G41C C50U | < 1e-05 | < 1e-05 | < 1e-05 | < 1e-05 | –
G40U A48G G63U | < 1e-05 | < 1e-05 | – | < 1e-05 | < 1e-05
G41C U69A | < 1e-05 | < 1e-05 | – | – | < 1e-05

Variant | self-cleavage kobs at 40 uM GlcN6P (glucosamine-6-phosphate [1]) [s⁻¹] | self-cleavage kobs at 640 uM GlcN6P (glucosamine-6-phosphate [2]) [s⁻¹] | self-cleavage kobs at 2500 uM GlcN6P (glucosamine-6-phosphate [3]) [s⁻¹] | self-cleavage kobs at 10000 uM GlcN6P (glucosamine-6-phosphate [4]) [s⁻¹] | self-cleavage kobs at 160 uM GlcN6P (glucosamine-6-phosphate [5]) [s⁻¹]
G38U A52C | < 1e-05 | < 1e-05 | – | < 1e-05 | –
G38U C58U | < 1e-05 | – | < 1e-05 | < 1e-05 | –
G38C A39C G43U U57G C71U | < 1e-05 | < 1e-05 | < 1e-05 | < 1e-05 | –
A39G A48U C58G | < 1e-05 | – | – | < 1e-05 | –
G40C G44C | < 1e-05 | – | – | < 1e-05 | –
A39C A52U C71U | < 1e-05 | – | – | – | –
A39G U54G | 0.00177 ± 0.00036 | 0.00627 ± 0.0015 | 0.0305 ± 0.013 | – | 0.00227 ± 0.00056
G41U C61A | < 1e-05 | < 1e-05 | – | < 1e-05 | < 1e-05
A42C G59C | < 1e-05 | < 1e-05 | < 1e-05 | < 1e-05 | < 1e-05
G41A U69C | < 1e-05 | – | – | – | < 1e-05
G41U U45C U54G C67U C71G | < 1e-05 | < 1e-05 | – | – | < 1e-05
G40A C67A | < 1e-05 | 0.000183 ± 5.8e-05 | 0.000262 ± 0.00011 | – | –
G40A A53G | 0.000243 ± 5.3e-05 | 0.0022 ± 0.0005 | 0.00571 ± 0.0011 | 0.0242 ± 0.0054 | –
G40C U57A | < 1e-05 | – | – | – | < 1e-05
G40C G41A C70U | 8.35e-05 ± 2.8e-05 | – | 0.000861 ± 0.00023 | – | –
A39G C68G | 2.98e-05 ± 1.4e-05 | 0.000165 ± 5e-05 | 0.000286 ± 4.7e-05 | 0.000116 ± 1.2e-05 | 6.43e-05 ± 1.3e-05
G41U U65C | < 1e-05 | – | – | 2.23e-05 ± 7.2e-06 | < 1e-05
G38A U47C | < 1e-05 | – | < 1e-05 | – | < 1e-05
A39C G44A G60U C68U | < 1e-05 | – | – | – | –
A42C A52U C61U | < 1e-05 | < 1e-05 | – | – | –
G40A A48C U57A C61G | < 1e-05 | – | < 1e-05 | – | –
